Measured values published in the DeepSol protein solubility set.

experiment: soluble on expression in E. coli; label from the status in PepcDB or PDB records

Sequence	soluble on expression in E. coli
MSLNEPDGVLSYQRPDEEAVVDQGGTSTILNIHYEKEELEGHRTLYVGVRMPLGRQSHRHHRTHGQKHRRRGGRGKGASQGEEGLEALAHDTPSQRVQFILGTEEDEEHVPHELFTELDEICMKEGEDAEWKETARWLKFEEDVEDGGERWSKPYVATLSLHSLFELRSCLINGSVLLDMRASSIEEISDLILDQQELLRDLSDSVRVKVREALLKKHHHQNERRRNNLIPIVRSFAEVGKKQSDPHSMDRDGQTVSPQSATNLEVKNGVNCEHSPVDLSKVDLHFMKKIPTGAEASNVLVGEVDTLDRPIVAFVRLSPAVLLSGLTEVPIPTRFLFILLGPVGKGQQYHEIGRSMATIMTDEIFHDVAYKAKERDDLLAGIDEFLDQVTVLPPGEWDPSIRIEPPKNVPSQEKRKMPGVPNGNVCHIEPEPHGGHSGEGHHHHHH	soluble
MGSDKIHHHHHHMSHEVDPRVDKTRRRLRQALITLLQTETVDNISVQKLTSTAAVTRGTFYLHYKDKPAFVDQALDDLVSELFETAIVTVSVGDIMTNPADPLQRVHVFSLSKALSYISQHAEAFETLLLDQRQLAVNQRINQQMTTWMTKFHRDFQDQFADLEVPVSIQIAYYVSATVGLITDWLANDMIYTPHYLTKCIKKMHHLMTVGSISFTDFFVK	not soluble
MGYRIEFDPRAEKELEKLDREVARRILRFLRERVATLEDPRSLGEPLRGPELGRFWKYRVGDYRLICHIQDREATVLVLRVGHARDVYR	soluble
MGSDKIHHHHHHMSQSIRQAVMQASQAWIADFNRQAFADCIARYLPEAQMQVSPFGRFDGVEAISQFWLGFAQQNPGELVYRNVEIKVLSDSQAILSANWRMNIASGFISKELWTLADDGHWYLEEDDFSVLTQLSEPLAPRMRSALVLVDLQNDYFKGGRFALDNCEAAAANAAKLLHHFRSNQLPVIHVQHIFKDPEASFFQAGTQGVEIADMVAPKGNEPVIIKHYVDSFIDTALSQTLIEMGIDKLVVVGAMAQACVQTLCRSAVKAGFECEVISDAIAAPSLSWESQDLSGEQLVAANLISLSFGGAKALSLDDWLILERLAG	not soluble
DSLVFVQTDKSIYKPGQTVKFRVVSMDENFHPLNELIPLVYIQDPKGNRIAQWQSFQLEGGLKQFSFPLSSEPFQGSYKVVVQKKSGGRTEHPFTVEEFVLP	soluble
MPLHVVLYQPEIPANTGNIARTCAATDTSLHLIRPLGFSTDDKMLKRAGLDYWPYVNISYYDSLDELFARFPEGEFYFITKFGRRYYDSFDFSDTEKHIFFVFGRETTGLPKELLEANMDRCLRIPMNDKVRSLNLSNTAAILVYEALRQQRFYGLS	not soluble
MGSDKIHHHHHHMHIAIMSRNKNLYSTSRLKEAAEARGHVIKIVDPLKCYMNINMNAPSIHVRGEELPKFDAVIPRIGASVTFYGTAVLRQFEMMGTHPLNESVAITRSRDKLRSLQLLSRKNIGLPVTGFASKPADIPDLLDMVGGAPCVIKLLEGTQGIGVVLAETRKAAESVIEAFMGLKANIMVQEYIAEAGGADIRCFVIGDKVIAAMKRQALPGEFRSNLHRGGSASIVKLTPEERSTALRAAKTMGLNVAGVDILRSKHGPLVMEVNSSPGLEGIEKATGIDVAEKIIQFIEKNVKSTSSKTKGVG	not soluble
MSLILPPIIAASLPPPPGPHAVGYTFLVHPPLSPFSHSSPTLKSTGKPAFQIEEIGYCLFYPGLPEGKRGKEWVSWVPDPFWGVIRGYERFLGGKGGVSWLVKPLGYIAGRLQMPLHPRAPLKPTDKPYPLLIFSHGLAGTRHTYSQYCAALASEGYVVLAVEHRDGSGPAVVLPPEGESKESRVLYYTGVNDISWAEGEEHPVTHARTLQLDIRTREVYEAYHSFKRLLSHEGDLSIKIEGLEGGHSFGGGTILHLLQSPPPSTLLPSLPAKQAISLDPWLEPLPAPSDILQTPLPSSLPPTLVINSAGFTEWPEHWEKLVEIMKGKGILITMIGIGHQAFSDFPLLSPRGYSHAHSMILKVHELSTAFLNKKLLSGAALAGKTPDKGDYEKDEDGVKIKGKAAMKDGDVLLHFADREEGHHHHHH	soluble
MGSDKIHHHHHHMKLRLRKPMRSAGNMSSLVDFYNDFITRHGFEERKGIEETLRYLENGHNVILKAPTGYGKTTLTMILANAVSSNIDIGSRVIHVLPYRAIVQDLYLKLKKYADKGIIYTKSIGAQDMDYHDSPFFMKKVNVTTLDTFILNLFKLPTIDFKLIFKNYGSHYEFPRALIYSSIVIFDEFHLLGEDGKSLGAGLSAIEVLSDAGVPIVVTSATIDKGLERVLMDKLGKSGKVVYASDFKIDRKIYVNELEKDEISIADEKVKEGKRVLLVYNTRMGAIEAYWKLKERGLSPILIHSKFSKKDRIDKVNKINDAKLVVSTQVIEAGIDTSFDVLITEACPSHNLIQRAGRVARYGKGGKGKLEGEVYIFPFSGKVYNEGEVKETMKRVRKLKTIDESLLIERDYTKEIDSILARDLSVIDNSVFVDYKKVKSLYENICSITRETSIILGFPPNSDNVDDAIPLTEEEAIKIIKSKGSSAFVGNSNIKLYAGKCLQLEMIKNDILGVRIQDYNSEIGGVY	not soluble
MSKDIRTVRPPVQLLPKAIIAVRPASTAKADLEVMAAQVAQLTTACCQENIQVDSIIITFGGIKDITKRVKQLTEQKDISYLIIYSGKQIAENESEYVNFKRDMQDWYYLKVVCYR	not soluble
MRPCRTGREQMTDTTMQLLSQGTDHVKVPDFDILAEGKTLSGVAERLMSLSLTDNRGFEADQLTITLDDADGQLQLPPRGARLTVLIGWKGEPLTEKGTCRFNLSMQHPFQLSLSVF	not soluble
LVRSGRNITMQIIGYMTSHRKQHLEATDVAREFGYGREHFCRLFRKATGKTFKEFLTDLRLDDACRKLSGSSASIASIARECGFPDTRALQTAVQRKYGIRAQEYRERYENR	soluble
MALLQISEPGLTAAPHQRRLAAGIDLGTTNSLVATVRSGKAQTLADEQLADEQLIADEQLIAGEQLIAGQQLIAGQQLINEKQRDLLPSVVHYHPQGIDVGWKARNLAALDPVNTISSVKRMMGRSLADIVQRYPNLPYQFHASENGLPMIQTARGLVNPVQVSAEILKTLAQRAQAALAGELDGVVITVPAYFDDAQRQGTKDAARLAGLHVLRLLNEPTAAAIAYGLDSGQEGVIAVYDLGGGTFDISILRLSRGVFEVLATGGDSALGGDDFDHLLADWLREQAGVATRDDHGIQRQLLDTAIAAKIALSEAETAVVSVAGWQGEVTREQLESLIAPQVKRTLMACRRALKDAGVTADEILEVVMVGGSTRVPLVREQVGQFFGRTPLTSIDPDKVVAIGAAIQADILVGNKPDSDMLLLDVIPLSLGLETMGGLVEKVIPRNTTIPAARAQEFTTFKDGQSAMMIHVLQGERELVKDCRSLARFTLRGLPPLPAGGAHIRVTFQVDADGLLSVTAMEKSTGVEASIQVKPSYGLSDDEIANMIKDSMANAQSDITARKLAEQRVDAARVLESLQGALAEDAALLSEQESAAIAQAVALLQQQMQGSDPQAIEAAIKALDAQTQDFAARRMDASIRRALAGHSVDEV	soluble
MYNDVLFPGEDINKPISIAAANRFVNRIRGGMDLGYWRTHDFRRTLVTRLSEMNVEPHVTERMLGHELGGIMSVYNKHDWIEAQRKAYELHADKLFWHIRSISD	not soluble
MASISSLGVGSNLPLDQLLTDLTKNEKGRLTPITKQQSANSAKLTAYGTLKSALEKFQTANTALNKADLFKSTVASSTTEDLKVSTTAGAAAGTYKINVTQLAAAQSLATKTTFATTKEQLGDTSVTSRTIKIEQPGRKEPLEIKLDKGDTSMEAIRDAINDADSGIAASIVKVKENEFQLVLTANSGTDNTMKITVEGDTKLNDLLAYDSTTNTGNMQELVKAENAKLNVNGIDIERQSNTVTDAPQGITLTLTKKVTDATVTVTKDDTKAKEAIKSWVDAYNSLVDTFSSLTKYTAVEPGEEASDKNGALLGDSVVRTIQTGIRAQFANSGSNSAFKTMAEIGITQDGTSGKLKIDDDKLTKVLKDNTAAARELLVGDGKETGITTKIATEVKSYLADDGIIDNAQDNVNATLKSLTKQYLSVSNSIDETVARYKAQFTQLDTMMSKLNNTSSYLTQQFTAMNKS	not soluble
GPGSMPSLANGLRCPDALITRTLNPLLNGPKFAVIYCGNHQYKVAVGDVIAVQRLRVEIGSHIALKKVLMVGGPRFTAIGRPLLEGVRVTAQVEEQKRMRNVVSLFATPGRRHVRWVDAPHAATVIRICEIFYSPNVVGELDKYKGELLETFTPGQHTNPVYPVDDGYDVFRKKDKEAMENATTFLDLLGGV	not soluble
GEKTYVKRLVKILLLGAGESGKSTFLKQMRIIHGQDFDQRAREEFRPTIYSNVIKGMRVLVDAREKLHIPWGDNKNQLHGDKLMAFDTRAPMAAQGMVETRVFLQYLPAIRALWEDSGIQNAYDRRREFQLGESVKYFLDNLDKLGVPDYIPSQQDILLARRPTKGIHEYDFEIKNVPFKMVDVGGLRSERKRWFECFDSVTSILFLVSSSEFDQVLMEDRQTNRLTESLNIFETIVNNRVFSNVSIILFLNKTDLLEEKVQVVSIKDYFLEFEGDPHCLRDVQKFLVECFRGKRRDQQQRPLYHHFTTAINTENIRLVFRDVKDTILHDNLKQLMLQ	soluble
MGHHHHHHSHMKNSEESSSSSEDTNNATDTNTSESQDISVNGPEKVGDVYEIDGGTAKVMAISNKETTVKTGPIQFTVKKVIAAVANEQLPFIDVQIESENTSDEVVRFRPSLAQLATSTGVQIDEPSLLESDRLLDEYVGKVNDSGSIIYVFDNEEDIKDLESIRLRISSPFNEDLKNLGDKLDLKINLEH	soluble
MMKQIPYGLTDFARIQKDNYYYVDKTMFIERIEMQPAYLFLIRPRRFGKSLTLAMLEAYYDVVYANDFDELFGHLYIGQHPTPKHNCYLIMRFNFSEVSSNVNEVERSFKLHCCSKLRDFVFKYEDLLGKEIWDVLDEEIQQDPGAFLSAINSYASRKGNLPIYLLIDEYDNFTNTILSTYGTEYYQKATHGEGFVRGFFNVIKAATTGTGSALQRMFITGVSPVTMDDVTSGFNIGTNITTDPWFNDLVGFSEAELREMLTYYKEQGVLMQTVDETIVMMKPNYDNYCFSRSRLADCMFNSDMVLYFMKSFVLHGEKPDEIVDPNIRTDFNKLAYLIRLDHGLGENFSVIKEIAEQGEITTDIATHFSALEMTDVRNFKSLLFYFGLLSIKGVDMVGRPILHVPNLVVREQLFSFLIQGYIKHDIFKIDMNRMTMLFENMAFRGDWKPLFNFIAEAIREQSRIREYIEGEAHIKGFLLAYLGMYRYYQLYPEYELNKGFADFLFKPSPSVPVMPPLTYLLEVKYAKAGASEKEIRALADGAREQLLRYSQDELVTEARAKGGLKLITIVWCSWELVLLEEVL	not soluble
MKLDLDAFRIQPGKKPNLAKRPTRIDPVYRSKGEYHELLANHVAELSKLQNVLYADNRYAILLIFQAMDAAGKDSAIKHVMSGVNPQGCQVYSFKHPSATELEHDFLWRTNCVLPERGRIGIFNRSYYEEVLVVRVHPEILEMQNIPHNLAHNGKVWDHRYRSIVSHEQHLHCNGTRIVKFYLHLSKEEQRKRFLERIDDPNKNWKFSTADLEERKFWDQYMEAYESCLQETSTKDSPWFAVPADDKKNARLIVSRIVLDTLESLNLKYPEPSPERRKELLDIRKRLENPENGK	not soluble
